The values below come from article PMC11459484.

The target in the test is Selenomonas sp. HNH-Cascade Cas7 (Cas7f1) (Selenomonas sp.). As to the kind of experiment: cryo-EM structure; SsCascade RNP (Cas5/6/7/8 and processed crRNA) co-expressed in E. coli, purified by Ni-NTA and gel filtration, mixed with target DNA at ambient temperature for 5 minutes; Map A 3.48 Å, Map B 3.28 Å. Background: SEC sorts molecules by how far they enter the pores of the column.

For “Selenomonas sp. HNH-Cascade Cas7 (Cas7f1) (natural protein)”, the stoichiometry N (in general, a count of units in the complex or per binding partner) is 6.
